Variants at the floor of the assay were thinned out.

First the molecules themselves.
B1: TPR 5TU (parent)
chain: GGAUCUUCUCGAUCUAACAAAAAAGACAAAUCUGCCACAAAGCUUGAGAGCAUCUUCGGAUGCAGAGGCGGCAGCCUUCGGUGGCGCGAUAGCGCCAACGUUCUCAACUAUGACACGCAAAACGCGUGCUCCGUUGAAUGGAGUUUAUCAUG

The data set covers variants of B1. The data set can be described thus: polymerase ribozyme fitness, log enrichment relative to wild type (log ratio); higher = more active; in vitro selection for triplet polymerase activity. An outline of the steps:
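Streptavidin-bead capture of gel-excised extended constructs, followed by RT-PCR, closed a single triplicate in vitro selection round. That round began by annealing PCR-built, transcribed mutant libraries of each subunit of a heterodimeric triplet polymerase ribozyme with a biotinylated primer, the partner subunit and triplets, then incubating them frozen at −7 °C. After Illumina sequencing of inputs and outputs, genotypes needed ≥10 input reads and ≥1 read per output. Fitness is the base-2 logarithm of genotype enrichment over wild-type enrichment, using inverse-variance-weighted replicate averages.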
As for U56A G84C, the “polymerase ribozyme fitness (log ratio)” value is -1.66. Regarding A22U A40C G65A, the “polymerase ribozyme fitness (log ratio)” value was -3.81. Under A30G A39U A52G U55G stands -4.08; under A28C G84A C87G C96G A121U, not above -4.2. Consider A91G C95U C125U, for which the “polymerase ribozyme fitness (log ratio)” value was -4.09.

C43G G67U G83U C93G C103U C116A: the “polymerase ribozyme fitness (log ratio)” value was not above -4.2. As to A37C A41C C72A C93U C125U, the “polymerase ribozyme fitness (log ratio)” value was not above -4.2. Take A30C C95G A119U C132U: the “polymerase ribozyme fitness (log ratio)” value was not above -4.2. Under A47C G68A C96G C99A stands not above -4.2. Take G42U G80A U104C: the “polymerase ribozyme fitness (log ratio)” value was not above -4.2.

In the case of A30C C87G C99G C132A G140U, the “polymerase ribozyme fitness (log ratio)” value was not above -4.2. For the variant U7G A23G C32A A115G, the “polymerase ribozyme fitness (log ratio)” value was not above -4.2. Under C54G U146G stands -2.99; under U61G C93U G94A U144G, not above -4.2. For the variant C10G, the “polymerase ribozyme fitness (log ratio)” value is -2.78. Turning to U82G G84C, the “polymerase ribozyme fitness (log ratio)” value was -4.06. Consider C27U C118U, for which the “polymerase ribozyme fitness (log ratio)” value was -1.44. Take C14U C35G C75U C76G C95U: the “polymerase ribozyme fitness (log ratio)” value was -3.81. Regarding U31A A66C G67C G88A G141A U146G, the “polymerase ribozyme fitness (log ratio)” value was not above -4.2. Regarding G48A U127G, the “polymerase ribozyme fitness (log ratio)” value was -3.5. As for C57G G70A C87U C123A, the “polymerase ribozyme fitness (log ratio)” value is not above -4.2. Regarding A19G U55A C87A A106G G124C G136C C149A A150C, the “polymerase ribozyme fitness (log ratio)” value was not above -4.2. A49C A66G: the “polymerase ribozyme fitness (log ratio)” value is not above -4.2. Regarding C95U A119G, the “polymerase ribozyme fitness (log ratio)” value came out at 0.353.

Consider A29U U31G C72U G83C, for which the “polymerase ribozyme fitness (log ratio)” value is not above -4.2.

With U4C C51U C96A A121C U134A, the “polymerase ribozyme fitness (log ratio)” value is -3.3. Regarding C76U U139G, the “polymerase ribozyme fitness (log ratio)” value was -0.649. For the variant A23U A29U, the “polymerase ribozyme fitness (log ratio)” value is -3.88. Take C38U C93U: the “polymerase ribozyme fitness (log ratio)” value is -1.06.

Turning to A39U U144C, the “polymerase ribozyme fitness (log ratio)” value is -2.52. Turning to A29U G84A, the “polymerase ribozyme fitness (log ratio)” value is not above -4.2. As to A19U G83A, the “polymerase ribozyme fitness (log ratio)” value is -0.555. With C10U U15A G50C C76U C85A, the “polymerase ribozyme fitness (log ratio)” value is not above -4.2.

In the case of U55A G67C C85A G86U G124U, the “polymerase ribozyme fitness (log ratio)” value was not above -4.2.

In the case of C103A A107U U134A, the “polymerase ribozyme fitness (log ratio)” value is not above -4.2. As to A20C C54U U78A, the “polymerase ribozyme fitness (log ratio)” value was not above -4.2. As for C14U A150C, the “polymerase ribozyme fitness (log ratio)” value was not above -4.2.

For the variant U13A U15C A26C C93A, the “polymerase ribozyme fitness (log ratio)” value was -3.05. As to C5G U6G U7G C14G A28C A30C G50C C51G A89G C93G G94U C105U C116U G143U, the “polymerase ribozyme fitness (log ratio)” value was not above -4.2. As to C96U A98G, the “polymerase ribozyme fitness (log ratio)” value is -1.3. The result for A16C U31A U104G A142C reads -2.77; that for U53C C72U C132U, -3.52; that for A20U C54A U56A G84C G86C C96U G117C A122U U144A A150G, not above -4.2. Under A28G A41G U45A G94C A97U stands -3.76; under C85A C95A, -0.893. As for A22C A24U G50C G58A C93U G94U, the “polymerase ribozyme fitness (log ratio)” value was not above -4.2. Regarding C96G A115G C123A A147U, the “polymerase ribozyme fitness (log ratio)” value was -0.404. Turning to C93A C99G, the “polymerase ribozyme fitness (log ratio)” value is -3.88.

For the variant G42A G71A A91U A97U G100C, the “polymerase ribozyme fitness (log ratio)” value was not above -4.2. For the variant A12U G34C G62C A73U C96U A107G C116G A147G, the “polymerase ribozyme fitness (log ratio)” value was not above -4.2. The result for G50A U53A C85A U109G A115G C116G G126C reads not above -4.2; that for A39U C54U C87A C99A G133U, not above -4.2.

For the variant C14U G84A, the “polymerase ribozyme fitness (log ratio)” value is -1.56. On to U55A G88U, for which the “polymerase ribozyme fitness (log ratio)” value is -4.14. Consider A20C U55A A110G, for which the “polymerase ribozyme fitness (log ratio)” value is -3.9. For G59C C87A U101C G141U A147U, the “polymerase ribozyme fitness (log ratio)” value was not above -4.2. C27U C32A A39U C75U A91C A121C G126C: the “polymerase ribozyme fitness (log ratio)” value was not above -4.2. As for A16U A64U A66C C93G, the “polymerase ribozyme fitness (log ratio)” value was not above -4.2.

For G46A C96U, the “polymerase ribozyme fitness (log ratio)” value is 0.0159. With C69A C93G C103A U130A, the “polymerase ribozyme fitness (log ratio)” value is not above -4.2. The result for G58C A60G G67A C69A G92U G112A G143C reads not above -4.2. C8G G59C G86C G117U: the “polymerase ribozyme fitness (log ratio)” value was not above -4.2. Regarding C8A G42U G50A G74U C95U, the “polymerase ribozyme fitness (log ratio)” value was not above -4.2. Consider A17G C32G C76U, for which the “polymerase ribozyme fitness (log ratio)” value was not above -4.2. Consider A17C C35U G86A A122G, for which the “polymerase ribozyme fitness (log ratio)” value is -1.01. A29C C57G G71A U90C: the “polymerase ribozyme fitness (log ratio)” value was not above -4.2. For C14A G50A C85G C96A, the “polymerase ribozyme fitness (log ratio)” value is not above -4.2. Turning to G83C C99A G133A, the “polymerase ribozyme fitness (log ratio)” value was -4.12. Under A21G C27G U33C G62U G81U C96U C105A A113U A122U stands not above -4.2. Take C14G G50C C51U C79U C85A C125A: the “polymerase ribozyme fitness (log ratio)” value was not above -4.2. In the case of C32A C51G C72U C85G A97C U101G, the “polymerase ribozyme fitness (log ratio)” value was not above -4.2.

In the case of A39G A49G G70A C87A G94A C99G G126A, the “polymerase ribozyme fitness (log ratio)” value is not above -4.2. Regarding A30C U55G C95A U135G U148A, the “polymerase ribozyme fitness (log ratio)” value was -3.85.

Consider G50A A73U C87A U144A, for which the “polymerase ribozyme fitness (log ratio)” value was not above -4.2. On to A19C G92U, for which the “polymerase ribozyme fitness (log ratio)” value is 0.745.

On to U7G G48A G59A A60G A97G, for which the “polymerase ribozyme fitness (log ratio)” value is -3.81. Regarding A39C C76G A137C, the “polymerase ribozyme fitness (log ratio)” value was not above -4.2. For the variant C103A A107C A142C, the “polymerase ribozyme fitness (log ratio)” value was not above -4.2. The result for G62A C116U reads -0.0465; that for A19G A23U C38U G42U G68A U82A, not above -4.2. As for A41U C54U C96A, the “polymerase ribozyme fitness (log ratio)” value is -2.16.

For G58U G83C, the “polymerase ribozyme fitness (log ratio)” value was -0.165. Under A22U C85U stands -0.371.

Source of the values: the RNAGym collection of RNA variant scans (doi:10.1073/pnas.2313332121).
